± gives the uncertainty stated by the source.
assay: protein stability index of a GFP-peptide fusion (yeast GPS) (PSI 1-4); higher = more stable; sorted into four equal gates, so the index is relative within each strain; conditions: pdr5∆
Method in brief: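 Mid-log yeast cultures in leucine-free medium, carrying a pooled plasmid library, were sorted into four equal gates by their GFP/Cherry fluorescence ratio. Each plasmid expressed Cherry along with GFP fused upstream of a tiled 17-residue yeast protein peptide. Plasmids recovered from each gate were PCR-amplified and Illumina-sequenced, with reads assigned to strains by barcodes. The protein stability index was obtained by summing each gate's read frequency weighted by its gate number.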

Question: For IVKASNWRLVEVGRVVL [RPL14A], which protein stability index is on record?
Answer: 1.43 ± 0.13

Question: With IVKVFHGAFMDIIWLQR [RRP6] as the sequence, how does the protein stability index read?
Answer: 1.53 ± 0.047

Question: Which protein stability index does the source give for IVNVNFMKSVIRSREAF [DIS3] here?
Answer: 2.77 ± 0.062

Question: For IVQIDATPFRQWFEAHY [RPS8A], which protein stability index is on record?
Answer: 2.797 ± 0.025

Question: With IVTGNLVLDLLTWLSSF [IRR1] as the sequence, how does the protein stability index read?
Answer: 2.66 ± 0.041

Question: Which protein stability index does the source give for IVTKDGVRKEFYELKRD [PRE7] here?
Answer: 2.16 ± 0.066

Question: For IVVQLNGRLNKCGVISP [RPS22A], which protein stability index is on record?
Answer: 3.35 ± 0.14

Question: For IYISNLVRSIIAFDDLI [RPN8], which protein stability index is on record?
Answer: 1.36 ± 0.11

Question: For IYLSRFLIKASVREINL [SSN8], which protein stability index is on record?
Answer: 1.86 ± 0.13

Question: With IYNNIVSNIEGILDEIM [RGR1] as the sequence, how does the protein stability index read?
Answer: 2.09 ± 0.066

Question: With IYNSASKASMQKEQNVN [YCS4] as the sequence, how does the protein stability index read?
Answer: 2.11 ± 0.13

Question: For IYRTTRQDGSYTYHSTN [ARP9], which protein stability index is on record?
Answer: 2.74 ± 0.083

Question: With IYRVRVRRGNRKRPVPK [RPL15A] as the sequence, how does the protein stability index read?
Answer: 2.86 ± 0.2

Question: For IYSRDIGAELKREESES [SNF2], which protein stability index is on record?
Answer: 3.19 ± 0.086

Question: Which protein stability index does the source give for KAAAGAGSAALKIIHDT [RPO31] here?
Answer: 1.8 ± 0.17

Question: With KAIPTFSFGKPFFSSNT [YIL149C/MLP2] as the sequence, how does the protein stability index read?
Answer: 3.14 ± 0.046

Question: With KAKSNQTQREKAPLQPN [IRR1] as the sequence, how does the protein stability index read?
Answer: 3.24 ± 0.052

Question: With KALLFFNNEKETEKFAL [RPN12] as the sequence, how does the protein stability index read?
Answer: 3.03 ± 0.12

Question: Which protein stability index does the source give for KALPIRRDDEVLVVRGS [RPL26A] here?
Answer: 3.05 ± 0.12

Question: Which protein stability index does the source give for KALVLFVPVPALSAYHK [RPS7B] here?
Answer: 2.51 ± 0.072

Question: With KAPEQFIENFLTNDTFE [YML103C/NUP188] as the sequence, how does the protein stability index read?
Answer: 3.16 ± 0.1

Question: Which protein stability index does the source give for KCQTCQEGMNECPGHFG [RPO21] here?
Answer: 3.23 ± 0.094

Question: For KDAEDETSSDGSKSDGS [RPN1], which protein stability index is on record?
Answer: 3.41 ± 0.054

Question: Which protein stability index does the source give for KDAEYLRNYLTPNVREE [PUP1] here?
Answer: 3.01 ± 0.075

Question: For KDALSNSILSVRDPWSI [SRB2], which protein stability index is on record?
Answer: 3.41 ± 0.087

Question: For KDEEETEYFENKQSVSN [DSN1], which protein stability index is on record?
Answer: 3.4 ± 0.091

Question: For KDGSNPRTLIGHRATVT [RPN14], which protein stability index is on record?
Answer: 3.31 ± 0.26

Question: With KDILNLASEVGDPALVY [ECM29] as the sequence, how does the protein stability index read?
Answer: 3.15 ± 0.12

Question: For KDKFNQIPLHRAASVGS [NAS6], which protein stability index is on record?
Answer: 2.13 ± 0.079

Question: For KDLKDDSIYTKPVKVAL [YJL039C/NUP192], which protein stability index is on record?
Answer: 2.98 ± 0.045

Question: For KDLKHIIYYKFNKNLGK [PRP8], which protein stability index is on record?
Answer: 1.28 ± 0.053

Question: With KDLTLCRYSCLALERMV [YCS4] as the sequence, how does the protein stability index read?
Answer: 2.36 ± 0.2

Question: Which protein stability index does the source give for KDMKLLRYYKNIWLNNK [NUT1] here?
Answer: 1.65 ± 0.074

Question: For KDMLYSGITGECLQAYI [RET1], which protein stability index is on record?
Answer: 2.68 ± 0.051

Question: For KDQALIGTINSIVHINS [SIR2], which protein stability index is on record?
Answer: 1.66 ± 0.032

Question: Which protein stability index does the source give for KDSYVRIANIEQNHLDN [YDL088C/ASM4] here?
Answer: 3.43 ± 0.28

Question: For KDTNDHVDKRTKIDQEA [ISW2], which protein stability index is on record?
Answer: 2.62 ± 0.048

Question: Which protein stability index does the source give for KDVAKPTGPKTAIDKNG [FAS2] here?
Answer: 3.04 ± 0.11

Question: With KDVKARIAAGDGDDDDE [QCR9] as the sequence, how does the protein stability index read?
Answer: 2.29 ± 0.19

Question: With KDVKAWAGKRLWDQDIA [COR1] as the sequence, how does the protein stability index read?
Answer: 3.4 ± 0.11

Question: With KDVLAQTSVTTNFNEIT [SWP82] as the sequence, how does the protein stability index read?
Answer: 2.75 ± 0.06

Question: Which protein stability index does the source give for KEIYTTLGNQMLSAHNI [YJR042W/NUP85] here?
Answer: 2.82 ± 0.077

Question: For KEKLIGWYHSGPKLRAS [RPN8], which protein stability index is on record?
Answer: 2.41 ± 0.045

Question: Which protein stability index does the source give for KEKWPSLELQSFQKIPL [YML103C/NUP188] here?
Answer: 2.62 ± 0.12

Question: Which protein stability index does the source give for KELKEKEAAESPEEADV [PUP2] here?
Answer: 3.56 ± 0.086

Question: For KENFILDSLMKTTRLLL [YJL039C/NUP192], which protein stability index is on record?
Answer: 1.64 ± 0.05

Question: With KEPRLVIVTDPRSDAQA [RPS0A] as the sequence, how does the protein stability index read?
Answer: 3.06 ± 0.087

Question: With KFADGFLIHSGQPVNDF [RPS3] as the sequence, how does the protein stability index read?
Answer: 3.07 ± 0.097

Question: With KFFMKHGLILELQKIWQ [SRB5] as the sequence, how does the protein stability index read?
Answer: 3.02 ± 0.089

Question: With KFGACVAQGIMNAGGRN [RPN2] as the sequence, how does the protein stability index read?
Answer: 2.73 ± 0.28

Question: Which protein stability index does the source give for KFIALCEQQPSQEREFS [SIN4] here?
Answer: 2.82 ± 0.063

Question: Which protein stability index does the source give for KFKHIDDKYGRKFALEK [SRP72] here?
Answer: 2.81 ± 0.069

Question: For KFKKEKFDIIIVDTSGR [SRP54], which protein stability index is on record?
Answer: 3.01 ± 0.036

Question: For KFNNTQRESQIGAAELN [SNF12], which protein stability index is on record?
Answer: 3.03 ± 0.14

Question: With KGDGMTSAVASIGSIYQ [RPN1] as the sequence, how does the protein stability index read?
Answer: 3.14 ± 0.2

Question: With KGDINPEVSMIRDIREK [RPB2] as the sequence, how does the protein stability index read?
Answer: 2.36 ± 0.082

Question: For KGGIIASVGDILKTLER [YML031W/NDC1], which protein stability index is on record?
Answer: 2.93 ± 0.09

Question: With KGGSLYGLGLIYAGFGR [RPN2] as the sequence, how does the protein stability index read?
Answer: 2.28 ± 0.086

Question: With KGKARLGTLVNQKTSAV [RPL8A] as the sequence, how does the protein stability index read?
Answer: 2.38 ± 0.076

Question: For KGSRQCRVCSSHTGLIR [RPS29A], which protein stability index is on record?
Answer: 2.93 ± 0.049

Question: With KGSRQCRVCSSHTGLVR [RPS29B] as the sequence, how does the protein stability index read?
Answer: 2.79 ± 0.051

Question: Which protein stability index does the source give for KGVLLYGPPGTGKTLLA [RPT4] here?
Answer: 2.58 ± 0.041

Question: With KGYLQRGDDGESYAYLA [CDC53] as the sequence, how does the protein stability index read?
Answer: 3.17 ± 0.055

Question: For KHGAVHLSTYLKVYKVG [RPL21A], which protein stability index is on record?
Answer: 1.69 ± 0.077

Question: With KIAKRRQVYKPVLDNPF [POP3] as the sequence, how does the protein stability index read?
Answer: 2.33 ± 0.082

Question: For KIALGSPIVNVLEDVYR [RRI2], which protein stability index is on record?
Answer: 2.96 ± 0.15

Question: For KIEGVATPQEAQFYLGK [RPL33B], which protein stability index is on record?
Answer: 3.03 ± 0.098

Question: For KIESEDDYILSGESVMD [SRB4], which protein stability index is on record?
Answer: 3.5 ± 0.1

Question: For KIINTHSDMASKMYNTD [PRP8], which protein stability index is on record?
Answer: 2.76 ± 0.052

Question: Which protein stability index does the source give for KIIPKDISATQLPKQLW [ITC1] here?
Answer: 2.43 ± 0.14

Question: With KIKAILESVGIEIEDEK [RPP2A] as the sequence, how does the protein stability index read?
Answer: 3.3 ± 0.11

Question: With KIMQEATQSGGVRPFGV [PRE8] as the sequence, how does the protein stability index read?
Answer: 2.45 ± 0.29

Question: For KINQERLERRINLTKVT [CSI1], which protein stability index is on record?
Answer: 1.96 ± 0.062

Question: With KIPILAQHESFLRQKIC [RPN9] as the sequence, how does the protein stability index read?
Answer: 2.06 ± 0.055

Question: Which protein stability index does the source give for KIQVVDRHIGCVYSGLI [PRE10] here?
Answer: 1.7 ± 0.29

Question: For KIRARSITLQGDVYDPE [SMC2], which protein stability index is on record?
Answer: 2.19 ± 0.059

Question: With KISNSEFFNPEIFHLLQ [SIN4] as the sequence, how does the protein stability index read?
Answer: 1.74 ± 0.072

Question: For KITAKTQHEEEEEQDTG [IRR1], which protein stability index is on record?
Answer: 3.16 ± 0.13

Question: For KIYKLENGERKLYDAKR [YMR129W/POM152], which protein stability index is on record?
Answer: 3.17 ± 0.077

Question: Which protein stability index does the source give for KKAVVKGTNGKKALKVR [RPL25] here?
Answer: 2.24 ± 0.078

Question: For KKCIDFFEMLISKSLTF [RRI2], which protein stability index is on record?
Answer: 2.13 ± 0.041

Question: With KKDIKIGTNDLFQVESA [SIR4] as the sequence, how does the protein stability index read?
Answer: 3.22 ± 0.066

Question: With KKDQSVLKSHSNDFEEG [YMR129W/POM152] as the sequence, how does the protein stability index read?
Answer: 2.99 ± 0.12

Question: For KKENLTRDETVSLIKKY [YML103C/NUP188], which protein stability index is on record?
Answer: 2.83 ± 0.1

Question: For KKFNMGKEFEARNLIED [RPC53], which protein stability index is on record?
Answer: 2.72 ± 0.087

Question: Which protein stability index does the source give for KKIGCYMFANLEFSIYH [CSN12] here?
Answer: 1.95 ± 0.064

Question: For KKISRLPKFLTVQYVRF [UBP6], which protein stability index is on record?
Answer: 1.44 ± 0.041

Question: For KKIVDSKKLNLKIHQSH [YMR129W/POM152], which protein stability index is on record?
Answer: 2.7 ± 0.056

Question: For KKKKKGSNQKPKYEPPV [RPT2], which protein stability index is on record?
Answer: 2.96 ± 0.12

Question: For KKKQQGAKQTQGGAMNK [SRP72], which protein stability index is on record?
Answer: 2.54 ± 0.1

Question: With KKKRSRTSATREDTPLS [ISW2] as the sequence, how does the protein stability index read?
Answer: 3.37 ± 0.083

Question: With KKKTTLEDFENFKGLAK [YIL149C/MLP2] as the sequence, how does the protein stability index read?
Answer: 2.99 ± 0.03

Question: Which protein stability index does the source give for KKLKPIVAKYDPPIIIF [PRP28] here?
Answer: 2.59 ± 0.075

Question: Which protein stability index does the source give for KKLLINKDASLALQRGA [DPB4] here?
Answer: 2.75 ± 0.12

Question: Which protein stability index does the source give for KKMDDYIHRIGRTGRAA [PRP28] here?
Answer: 3.28 ± 0.092

Question: Which protein stability index does the source give for KKNPNWLEEYHPKLIKN [FAS1] here?
Answer: 1.94 ± 0.061

Question: Which protein stability index does the source give for KKQKLIEEQDKKVQALQ [ITC1] here?
Answer: 2.6 ± 0.079

Question: Which protein stability index does the source give for KKSEEKLREKVNDVELA [MTW1] here?
Answer: 3.03 ± 0.13

Question: Which protein stability index does the source give for KKSKKKWSKKSMKDRAQ [RPS25A] here?
Answer: 3.37 ± 0.1

Question: Which protein stability index does the source give for KKSQCKKKTTLEDFENF [YIL149C/MLP2] here?
Answer: 3.04 ± 0.051

Question: With KKSVLKQVQDFEENDHP [COR1] as the sequence, how does the protein stability index read?
Answer: 2.81 ± 0.15

Question: Which protein stability index does the source give for KKWKKYWQYKAGIPIGL [SWP82] here?
Answer: 2.25 ± 0.081

Question: With KKWNDLKNKNFKCQEKD [SIR2] as the sequence, how does the protein stability index read?
Answer: 3.34 ± 0.14

Source: the supplement of paper PMC9732359
